Measured values reported in PMC10641899, “Identification of HuR–RNA Interfering Compounds by Dynamic Combinatorial Chemistry and Fluorescence Polarization”.

Biological target: HuR RRM1+2 (RRM1/2) (UniProt Q15717 1-186)
Experiment: fluorescence polarization; 2.4 uM HuR RRM1/2, 45 nM RNA, 15% DMSO; complex 105 mP vs free RNA 35 mP; FP: PBS (20 mM sodium phosphate, 150 mM NaCl, 1 mM DTT, 0.05% Pluronic-127, 15% DMSO), 293 K; pH not stated
Conditions: protein: recombinant; tags: N-terminal His6-TEV, tag cleaved and removed; label: 5'-FAM; single strand

Chain of HuR RRM1+2 (RRM1/2) (Q15717 1-186): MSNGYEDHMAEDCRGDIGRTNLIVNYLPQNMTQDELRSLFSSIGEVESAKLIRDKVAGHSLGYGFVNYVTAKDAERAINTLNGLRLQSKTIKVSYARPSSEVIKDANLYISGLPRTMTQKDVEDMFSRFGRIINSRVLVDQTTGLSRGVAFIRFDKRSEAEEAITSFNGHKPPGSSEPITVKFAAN

UAUUUAUUUA (ssRNA) [5'-FAM ARE RNA probe]
binding result: binds
